The AUC(0-inf) is total exposure, with the tail of the curve extrapolated. Low readings indicate low exposure, high ones high exposure. Broadly, the half-life is how long it takes for the measured level to halve. A lower half-life goes with rapid decline. Broadly, the Cmax is the maximum level reached in the sampled fluid or tissue. Broadly, the Tmax is the time at which the peak concentration occurs. Usually bioavailability stands for the share of a dose that reaches the circulation, judged against a reference dose that is usually intravenous.

Data set [1] can be described thus: Rat pharmacokinetics, IV and SC.
Data set [2] can be described thus: Non-human primate pharmacokinetics, IV and SC. Format: in vivo, cynomolgus monkeys. To be noted: male, cynomolgus monkey, plasma; for half-life: pH 7.4.
A short description of data set [3]: Solubility in standard aqueous buffers. Type of data set: physicochemical. Conditions: standard aqueous buffers (e.g., PBS, HEPES) at physiological pH.
A short description of data set [4]: Rat pharmacokinetics, IV and SC. Format: in vivo, Sprague Dawley rats.
Where [5] appears, read: male, rat, in vivo, iv, 1 mg/kg.
The mark [6] stands for this setting: male, rat, in vivo, iv, 1 mg/kg, pH 7.4.
The mark [7] stands for this setting: male, rat, in vivo, sc, 1 mg/kg.
The mark [8] stands for this setting: Sprague-Dawley, rat, plasma, sc.
Where [9] appears, read: rats, IV, compared to PIE12-trimer.

*1 amine or outer side, *2 acyl side, *3 side chain or, on linkers, in order; H or OH if unused. Bridges are numbered along the chain shown (N, C = ends). Roman numbers before positions name the chains, in order. [ ]: non-standard residue; d: D form. X1 = CC(C)CCC[C@@H](C)[C@H]1CC[C@H]2[C@@H]3CC=C4C[C@@H](OC(=O)NCCOCCOCCOCCOCCC(=O)NCCOCCOCCOCCOCCOCCOCCOCCOCCOCCOCCOCCOCCOCCOCCOCCOCCOCCOCCOCCOCCOCCOCCOCCOCCOCCOCCOCCOCCC(=O)NC(CCC(=O)[*:1])(CCC(=O)[*:2])CCC(=O)[*:3])CC[C@]4(C)[C@H]3CC[C@]12C; PEG4 = NCCOCCOCCOCCOCCC(=O)O

In data set [1] (setting [5]), “I: Ac-[dH][dP][dC][dD][dY][dP][dE][dW][dQ][dW][dL][dC][dE][dL]G[PEG4][dK]-NH2 / II: Ac-[dH][dP][dC][dD][dY][dP][dE][dW][dQ][dW][dL][dC][dE][dL]G[PEG4][dK]-NH2 / III: Ac-[dH][dP][dC][dD][dY][dP][dE][dW][dQ][dW][dL][dC][dE][dL]G[PEG4][dK]-NH2 (disulfide I:3-I:12, II:3-II:12, III:3-III:12; linker I:17-II:17-III:17 via X1) [CPT31]” showed an AUC(0-inf) of 3.84 µM·h, a C0 of 2950 nM, a Vd of 0.134 L/kg and a clearance of 0.483 mL/min/kg. This compound gave a half-life in data set [1] (setting [6]) of 3.3 h. In data set [1] (setting [7]), the AUC(0-inf) turned out to be 2.11 µM·h, the Cmax stood at 261 nM, the time to peak (Tmax) stood at 2 h and the half-life is 5.4 h. The “prolongation of IV half-life” value in data set [1] (rats, IV, compared to Chol-PIE12-trimer) turned out to be 2 fold. For the same compound, in data set [1] (rats, SC, compared to Chol-PIE12-trimer), the “prolongation of SC half-life” value stood at 1.4 fold. In data set [2] (iv, 1 mg/kg), this compound gave an AUC(0-inf) of 11.6 µM·h, a C0 of 3110 nM, a Vd of 0.097 L/kg and a clearance of 0.158 mL/min/kg. Further, the half-life in data set [2] (iv, 1 mg/kg) was 7.4 h. Moreover, in data set [2] (sc, 3 mg/kg), the AUC(0-inf) is 29.4 µM·h, the Cmax was determined as 922 nM, the Tmax worked out at 8 h and the bioavailability amounted to 80%. The same compound had a half-life in data set [2] (sc, 3 mg/kg) of 18.8 h. Moreover, the solubility in data set [3] is recorded as ~ 40 mg/ml.
Consider `CC(=O)N[C@H](Cc1c[nH]cn1)C(=O)N1CCC[C@@H]1C(=O)N[C@@H]1CSSC[C@H](C(=O)N[C@H](CCC(=O)O)C(=O)N[C@H](CC(C)C)C(=O)NCC(=O)N[C@H](CCCCNC(=O)CCOCCOCCOCCOCCNC(=O)CCOCC(COCCC(=O)NCCOCCOCCOCCOCCC(=O)NCCCC[C@@H](NC(=O)CNC(=O)[C@@H](CC(C)C)NC(=O)[C@@H](CCC(=O)O)NC(=O)[C@H]2CSSC[C@@H](NC(=O)[C@H]3CCCN3C(=O)[C@@H](Cc3c[nH]cn3)NC(C)=O)C(=O)N[C@H](CC(=O)O)C(=O)N[C@H](Cc3ccc(O)cc3)C(=O)N3CCC[C@@H]3C(=O)N[C@H](CCC(=O)O)C(=O)N[C@H](Cc3c[nH]c4ccccc34)C(=O)N[C@H](CCC(N)=O)C(=O)N[C@H](Cc3c[nH]c4ccccc34)C(=O)N[C@H](CC(C)C)C(=O)N2)C(N)=O)(COCCC(=O)NCCOCCOCCOCCOCCC(=O)NCCCC[C@@H](NC(=O)CNC(=O)[C@@H](CC(C)C)NC(=O)[C@@H](CCC(=O)O)NC(=O)[C@H]2CSSC[C@@H](NC(=O)[C@H]3CCCN3C(=O)[C@@H](Cc3c[nH]cn3)NC(C)=O)C(=O)N[C@H](CC(=O)O)C(=O)N[C@H](Cc3ccc(O)cc3)C(=O)N3CCC[C@@H]3C(=O)N[C@H](CCC(=O)O)C(=O)N[C@H](Cc3c[nH]c4ccccc34)C(=O)N[C@H](CCC(N)=O)C(=O)N[C@H](Cc3c[nH]c4ccccc34)C(=O)N[C@H](CC(C)C)C(=O)N2)C(N)=O)NC(=O)CCOCCOCCOCCOCCOCCOCCOCCOCCOCCOCCOCCOCCOCCOCCOCCOCCOCCOCCOCCOCCOCCOCCOCCOCCNC(=O)CCN2C(=O)CC(S[C@H]3CC[C@@]4(C)C(=CC[C@H]5[C@@H]6CC[C@H]([C@H](C)CCCC(C)C)[C@@]6(C)CC[C@@H]54)C3)C2=O)C(N)=O)NC(=O)[C@@H](CC(C)C)NC(=O)[C@@H](Cc2c[nH]c3ccccc23)NC(=O)[C@@H](CCC(N)=O)NC(=O)[C@@H](Cc2c[nH]c3ccccc23)NC(=O)[C@@H](CCC(=O)O)NC(=O)[C@H]2CCCN2C(=O)[C@@H](Cc2ccc(O)cc2)NC(=O)[C@@H](CC(=O)O)NC1=O` (some centres unmarked) [Chol-PIE12-trimer], for which the Vd in data set [4] (Sprague-Dawley, rat, plasma, iv) was determined as 0.134 L/kg. In addition, in data set [4] (setting [8]), the Tmax stood at 4 h and the bioavailability is 73%. Also, in data set [4] (setting [9]), the “increase of IV half-life” value is 3 fold and the reduction of clearance was 14-18 fold. For the same compound, the “extension of apparent half-life upon SC dosing” value in data set [4] (rats, SC, based on terminal-phase elimination, compared to PIE12-trimer) is given as ~ 3 fold. In data set [1] (setting [6]), this compound showed a half-life of 1.6 h. Moreover, in data set [1] (setting [7]), the bioavailability stood at 51%. Also, in data set [1] (rat, in vivo, iv, 1 mg/kg), the C0 was found to be 4530 nM. For the same compound, in data set [3], the solubility was ~ 40 mg/ml.

The record behind these values is article PMC5893306 (Molecular pharmaceutics, 2018).
